This is an account of results in patent US20090111745A1 (DOMANTIS, published 2009).

Assay [1] concerns the target T1, mouse serum albumin (mouse, UniProt P07724 25-608).
T1 construct: also called MSA
Nature of the assay: table of affinities (KD); BIACORE on serum albumin-coated chip according to Example 1. (Surface plasmon resonance follows binding to a sensor surface in real time, without labels.)
Description: (§1) dAbs that bound serum albumin on a BIACORE chip (Biacore AB) were then further analysed to obtain information on affinity. The analysis was performed using a CM5 chip (carboxymethylated dextran matrix) that was coated with serum albumin. Flow cell 1 was an uncoated, blocked negative control, flow cell 2 was coated with HSA, flow cell 3 was coated with RSA and flow cell 4 was coated with MSA. The serum albumins were immobilised in acetate buffer pH 5.5 using the BIACORE coating wizard which was programmed to aim for 500 resonance units (RUs) of coated material. Each dAb of interest was expressed in the periplasm of E. coli on a 200 mL-500 mL scale and purified from the supernatant using batch absorption to protein A-streamline affinity resin (Amersham, UK) for the VH_{^S} and to protein L-agarose affinity resin (Affitech, Norway) for the Vκs followed by elution with glycine at pH 2.2 and buffer exchange to PBS. A range of concentrations of dAb were prepared (in the range 5 nM to 5 μM) by dilution into BIACORE HBS-EP buffer and flowed across the BIACORE chip.

The target in assay [2] is T2, rat serum albumin (rat, UniProt P02770 25-608).
T2 construct: also called RSA
The assay is described as above.
Description: as §1

The target of assay [3] is T3, human serum albumin (human, UniProt P02768 25-609).
T3 construct: also called HSA; HAS
The assay is described as follows: method not stated there (BIACORE SPR in Example 1); reference value given inside prophetic Example 10.

Another assay concerns the target porcine serum albumin (porcine, UniProt P08835 25-607). The assay is described as follows: method not stated in the legend (BIACORE SPR for the other affinities).
Assay [4] has as its target T2, rat serum albumin. Nature of the assay: BIACORE SPR, albumin on a CM5 chip, dAb in solution.
Description: as §1
The target of assay [5] is T3, human serum albumin. Described as above.
Description: as §1
The target of assay [6] is T1, mouse serum albumin. Nature of the assay: phage display selection on albumin (figure legend).
Assay [7] deals with T2, rat serum albumin. Nature of the assay: BIACORE, RSA flow cell (Fc=3), fit of the single trace at 10n analyte, row 'Fc=3 -4' [contd.].
Description: as §1
Assay [8] addresses T2, rat serum albumin. Nature of the assay: BIACORE, RSA flow cell (Fc=3), fit of the single trace at 15n analyte, row 'Fc=3 -3'; KD cell shaded [contd.].
Description: as §1
Assay [9] concerns the target T2, rat serum albumin. The assay is described as follows: BIACORE, RSA flow cell (Fc=3), fit of the single trace at 20n analyte, row 'Fc=3 -2' [contd.].
Description: as §1
Assay [10] concerns the target T2, rat serum albumin. Nature of the assay: BIACORE, RSA flow cell (Fc=3), fit of the single trace at 15n analyte, row 'Fc=3 -3' [contd.].
Description: as §1
For assay [11], the target named is T2, rat serum albumin. The assay is described as follows: BIACORE, RSA flow cell (Fc=3), fit of the single trace at 25n analyte, row 'Fc=3 -1'; KD cell shaded [contd.].
Description: (§2) dAbs that bound serum albumin on a BIACORE chip (Biacore AB) were then further analysed to obtain information on affinity. The analysis was performed using a CM5 chip (carboxymethylated dextran matrix) that was coated with serum albumin. Flow cell 1 was an uncoated, blocked negative control, flow cell 2 was coated with HSA, flow cell 3 was coated with RSA and flow cell 4 was coated with MSA. The serum albumins were immobilised in acetate buffer pH 5.5 using the BIACORE coating wizard which was programmed to aim for 500 resonance units (RUs) of coated material. […] A range of concentrations of dAb were prepared (in the range 5 nM to 5 μM) by dilution into BIACORE HBS-EP buffer and flowed across the BIACORE chip.
For assay [12], the target named is T2, rat serum albumin. Nature of the assay: BIACORE, RSA flow cell (Fc=3), fit of the single trace at 5n analyte, row 'Fc=3 -5'; KD cell shaded [contd.].
Description: as §1
Assay [13] concerns the target T2, rat serum albumin. Nature of the assay: BIACORE, RSA flow cell (Fc=3), fit of the single trace at 20n analyte, row 'Fc=3 -2'; KD cell shaded [contd.].
Description: as §1
Assay [14] deals with T2, rat serum albumin. The assay is described as follows: BIACORE, RSA flow cell (Fc=3), fit of the single trace at 10n analyte, row 'Fc=3 -4'; KD cell shaded [contd.].
Description: as §2
In assay [15] the target is T3, human serum albumin. Nature of the assay: table of affinities (KD); BIACORE on serum albumin-coated chip according to Example 1.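 Note: surface plasmon resonance with dAbs flowed over a chip carrying human, rat or mouse serum albumin, blocked uncoated flow cell as reference, KD from on- and off-rate curve fits.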
Description: as §1
The target of assay [16] is T2, rat serum albumin. Nature of the assay: BIACORE, RSA flow cell (Fc=3), fit of the single trace at 25n analyte, row 'Fc=3 -1' [contd.].
Description: as §1
For assay [17], the target named is T2, rat serum albumin. Nature of the assay: BIACORE, RSA flow cell (Fc=3), fit of the single trace at 5n analyte, row 'Fc=3 -5' [contd.].
Description: as §1

porcine serum albumin, sequence (P08835 25-607 limits assumed): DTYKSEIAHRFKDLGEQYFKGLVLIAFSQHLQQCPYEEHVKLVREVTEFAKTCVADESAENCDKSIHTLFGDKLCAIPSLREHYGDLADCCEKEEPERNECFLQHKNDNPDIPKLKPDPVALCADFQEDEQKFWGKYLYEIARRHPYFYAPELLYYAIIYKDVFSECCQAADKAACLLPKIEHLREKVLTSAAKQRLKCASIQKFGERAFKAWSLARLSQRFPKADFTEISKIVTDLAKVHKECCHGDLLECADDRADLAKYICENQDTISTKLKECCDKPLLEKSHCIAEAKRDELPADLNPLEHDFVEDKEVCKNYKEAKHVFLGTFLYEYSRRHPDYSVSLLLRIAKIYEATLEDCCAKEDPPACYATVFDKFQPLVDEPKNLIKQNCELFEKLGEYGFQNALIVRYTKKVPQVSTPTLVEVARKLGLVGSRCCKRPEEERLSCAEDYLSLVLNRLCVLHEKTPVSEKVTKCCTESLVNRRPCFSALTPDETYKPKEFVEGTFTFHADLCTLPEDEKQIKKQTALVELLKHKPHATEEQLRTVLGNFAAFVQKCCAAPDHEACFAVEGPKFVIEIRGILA

B1: DOM7h-8 (other)
VL: DIQMTQSPSSLSASVGDRVTITCRASQSISSYLNWYQQKPGKAPKLLIYRNSPLQSGVPSRFSGSGSGTDFTLTISSLQPEDFATYYCQQTYRVPPTFGQGTKVEIKR
For B1, the Kd (as a rule, a measure of binding affinity in units of concentration) was 200 nM with mouse serum albumin [1]; 120 nM with rat serum albumin [2]; 70 nM with human serum albumin [3]; 60 nM with porcine serum albumin; 100 to 500 nM with rat serum albumin [4]; 10 to 100 nM in the assay with human serum albumin [5].

B2: DOM7m-12 (other)
VL: DIQMTQSPSSLSASVGDRVTITCRASQSIFRHLKWYQQKPGKAPKLLIYAASRLQSGVPSRFSGSGSGTDFTLTISSLQPEDFATYYCQQVALYPKTFGQGTKVEIKR
notes: also called MSA 12
Regarding B2, the binding result with mouse serum albumin [6] was “binds”.

B3: DOM7r-1 (other)
VL: DIQTTQSPSSLSASVGDRVTITCRASQYIGRYLRWYQQKPGKAPKLLIYDSSVLQSGVPSRFSGSGSGTDFTLTISSLQPEDFATYYCQQRYRMPYTFGQGTRVEIKR
For the molecule B3, the Ka with rat serum albumin [7] turned out to be 9.07e+07 M⁻¹; with rat serum albumin [9], 8.41e+07 M⁻¹; with rat serum albumin [10], 7.62e+07 M⁻¹; with rat serum albumin [16], 9.35e+07 M⁻¹; with rat serum albumin [17] it was 6.12e+07 M⁻¹. For the same molecule, the koff (commonly the rate constant with which the complex falls apart) is 0.0316 s⁻¹ with rat serum albumin [7]; 0.0344 s⁻¹ in the assay with rat serum albumin [9]; 0.0331 s⁻¹ in the assay with rat serum albumin [10]; 0.0345 s⁻¹ with rat serum albumin [16]; 0.0316 s⁻¹ in the assay with rat serum albumin [17]. Besides, the kon (as a rule, the rate constant with which the complex forms) with rat serum albumin [7] worked out at 2.87e+06 M⁻¹ s⁻¹; with rat serum albumin [9], 2.89e+06 M⁻¹ s⁻¹; with rat serum albumin [10], 2.52e+06 M⁻¹ s⁻¹; in the assay with rat serum albumin [16] it was 3.23e+06 M⁻¹ s⁻¹; in the assay with rat serum albumin [17] it was 1.93e+06 M⁻¹ s⁻¹. The Kd turned out to be 13.1 nM with rat serum albumin [8]; 10.7 nM with rat serum albumin [11]; 16.3 nM with rat serum albumin [12]; 11.9 nM in the assay with rat serum albumin [13]; 11 nM with rat serum albumin [14]; 15 nM with rat serum albumin [2]. Besides, the Kd with rat serum albumin [4] lay within 10 to 100 nM. The binding result in the assay with mouse serum albumin [1] and in the assay with human serum albumin [15] was “no binding” throughout.
